Measured values published in the supplement of paper PMC12042874.
± gives the uncertainty stated by the source.

Experiment: amyloid nucleation score (Sup35N fusion, yeast selection) (log enrichment); library NNK3; higher = more nucleation; inactive = no reads after selection
Method in brief: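 The nucleation score, computed with DiMSum, is the log enrichment of output over input reads, centred on the mode score of non-aggregating sequences. Sequences with under 100 input reads were dropped. Reads were generated by Illumina sequencing of plasmid inserts from psi-negative yeast with Sup35N fused to peptides of 20 random codons, induced with 100 μM copper sulfate for 24 hours and grown 7 days at 30°C on medium lacking adenine and uracil.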

Substance	amyloid nucleation score
AAISVFCEVFK	inactive
AAVHWSTIYYSLGMVKDEGG	inactive
ACCIAGL	inactive
ACCQTDRFRFEVALVGFVVG	inactive
ACFEAICGYSTLSQ	inactive
ACLIRPRFYPVNHNSVVASL	inactive
ACMNSSSRSVMLLMCYYFSN	inactive
ACSRGKCFTNRGSRWHLFVC	inactive
ACYNSKRMGGMYNSRVLDHD	inactive
ADCPCYVTGCWLSYWMLYI	inactive
ADCPPRYRLPWGELGLRGEI	inactive
ADMGGSVGHVSNKSVSSNLL	inactive
ADVGGD	inactive
ADVLFKFNSDMRRS	inactive
ADVLTNRIGPCIKEGIKLGI	inactive
AEARTPIECVC	inactive
AEFYERLPFDIPLHSYFNAW	inactive
AEVPEFTLYVSFYSWVYFRL	inactive
AEWLSCLRWIGK	inactive
AFCRNRTNVCMICYLRSG	0.907 ± 0.17
AFFGCCYGRDLVEHW	1.49 ± 0.1
AFFVVTIFVVNTSCDNVLVS	1.03 ± 0.11
AFSISVLM	inactive

Substance	amyloid nucleation score
AGCIGFNVFEH	inactive
AGGSLWKAL	inactive
AGIVRWVVFISSYWGPLLLL	inactive
AGNIACVLSLCTYNARYRTR	3.19 ± 0.068
AGTKSLRNYGWCLYDGGFYH	inactive
AHEQTQSDLPGVELPRWDR	inactive
AHREFLFRMTVWNITKGLIL	-0.481 ± 0.9
AHRQMGNFR	-0.701 ± 1.2
AHVKLNDVFSWI	inactive
AHVSLVSLRKRLPYFGFASV	inactive
AIGDVTVGRIHFDMHCGLGR	-0.955 ± 1.2
AILLNWNCVNFPCFEIYPYL	1.7 ± 0.063
AILSTLVNTVNRELRQGRLM	inactive
AIRGVARLRVMDRVSALPLR	inactive
AITHRIDS	inactive
AITYTTSLKVSFVSKGVSGA	0.614 ± 0.32
AIYRIWCYGA	-0.088 ± 0.9
AKFSQVLLLQWGSSPDIDRE	1.11 ± 0.18
AKWCVF	-0.714 ± 2.4
ALCRASEVIWWARVSGGCVL	inactive
ALFSFDNSNYMVSNGAIGRV	-0.167 ± 0.75
ALFSKYIYITFNYYFMQKWL	2.54 ± 0.054
ALSGSGLRLTPMKQ	inactive

Substance	amyloid nucleation score
ALSPHSNCIYNCLSCCCDTD	0.655 ± 0.15
AMDRTNNIEDEQWIMNKYWV	inactive
AMMVRCFRDPKHEK	inactive
AMNFYI	inactive
AMQIYTLVMGSPRDFDYWKV	1.14 ± 0.11
AMSTDLLSVACL	inactive
ANECDGVYNGAKCSRWNFLL	inactive
ANICVFFSLDWFCPLFLSHK	2.34 ± 0.079
ANMCNCKAIHRFNKFNICSR	inactive
APLYTANAMHSRCILSWVFL	2.25 ± 0.082
APRFRFQTVHRSFVRSRKLR	inactive
AQFVWMKLHICRTDLGESH	inactive
ARDCGRFIFLWWRYSLTKRH	inactive
ARICIAACIRAICDGFSGRR	inactive
ARISEFTESWNRRCYTLRYC	inactive
ARKMTIRPPLFPAWHSFELK	inactive
ARSDGLF	inactive
ARSDHYYAVIGDVRMNILPI	inactive
ARTIELMECNISVNSIVWQG	1.98 ± 0.089
ARVVVG	inactive
ARWGDSLSRDLTSGYLFGVG	inactive
ASCSVVEKISFTDPGIQWIR	-0.032 ± 1.1
ASDSDTCCGFVRGAVYWRLT	-0.117 ± 0.84

Substance	amyloid nucleation score
ASFFNILNPISIVVILKRFC	inactive
ASGSHSVT	inactive
ASHHVDSTYDTYYWQHKAKK	inactive
ASKENCLIVFIVYQSIIETC	inactive
ASLRYYGMAVVSSVYKMVVV	inactive
ASMYIMFTTVNKILFIEISD	1.69 ± 0.056
ASNCDPMIHFLMHKVYKSFY	-0.103 ± 0.64
ASPYTGDWDTVMC	inactive
ASRSDCTRYIMTTMIWWHFP	inactive
ASSPLITRDDKAHGLEFHSY	inactive
ASVPAN	inactive
ASVRSGYDMVGFGILFGQMS	inactive
ASWFYNIKKLNCCHFVQFAD	1.64 ± 0.09
ASWPNYYWSNSLILFRDKCV	0.019 ± 0.3
ASYEDFWDNLA	-0.239 ± 1.4
ASYLCVFCDRAFQCGPYRYI	2.22 ± 0.092
ASYYF	inactive
ATFIFSDRQSHIHLYSNTQY	inactive
ATIYICGLNPNRVAACIVLE	inactive
ATLRAFATVYFHLVTHMFNF	inactive
ATPKPKGHY	inactive
ATSTTSLRVNLDHCAETFQN	0.238 ± 0.44
ATTADLDRCSLFPKLRILRG	inactive

Substance	amyloid nucleation score
ATTGR	inactive
AVCEMKIHCYITVPDPSRPR	inactive
AVECSDRTTARWLNVTYAYF	inactive
AVENSQFW	0.204 ± 0.38
AVFSKGISCGLH	-0.434 ± 1.1
AVFTCCCPRK	inactive
AVIIDIHGINPMG	inactive
AVIVVINNQTH	2.78 ± 0.077
AVQQKSECFLFAFLILRDWV	inactive
AVRCPLNMHLRGRAVVQYKG	inactive
AVSFLWHTYVLGGLLKLFGG	inactive
AVSLCSDLYFVFGKWFGCEL	1.11 ± 0.11
AVTYENRSNLIVKVLVI	-0.363 ± 0.27
AVWRYSVSYTLYHSSGLLES	inactive
AVYLGGGHKSCRRSRRWLVS	inactive
AWASIDVSNAL	inactive
AWTGGSLGLTNI	inactive
AWVDLVLRGFKGYLTYRSLH	inactive
AWVPMFFSLHMWHCNALNFC	inactive
AWWMLN	inactive
AYAQSYND	inactive
AYELHKTPNGPSPSESLALI	inactive
AYLGLLNSAKFFKYLRSYAW	inactive

Substance	amyloid nucleation score
AYLYNFLWDTGSVIWVVGHL	inactive
AYMRHFF	inactive
AYMVTKLVKR	inactive
AYSSWALMLGHTMCIYGGFR	1.55 ± 0.13
AYSVSRSALRSEANRIGSR	inactive
AYSVYVFALYRLNFYVLLRN	inactive
AYSYAYGHCRYGSEVS	inactive
AYWRREKMCSVPGGSWSGWV	inactive
CAAIRGKL	inactive
CAHKSGQACKHGVF	0.533 ± 0.4
CAKMHTCVYSFCTMEWSLTR	inactive
CALHRAGRTLVCFIYIFSGM	inactive
CAPLSVVWNSRGFM	inactive
CASCEVFMLR	inactive
CASTDKNPFLPVNAAITYGL	inactive
CCRLHRGISVNPILQSYGIM	inactive
CCSMARAITISGNVELKFD	inactive
CDHCRDKCMANRMSSRSLRW	inactive
CDLWIHWS	inactive
CDSRSCFKVYASLAARSDQR	2.12 ± 0.074
CDVFVSY	inactive
CEKDRMNLWLTRDG	inactive
CELGDSGVIDDKIICVCYYL	inactive

Substance	amyloid nucleation score
CEMGFLEPL	inactive
CEMLMGRVIFWSPQPQLWNY	inactive
CENIVGMPDRRISSVAGPDG	0.486 ± 0.33
CESPLERSSAKYCRWGSCWG	inactive
CEYCFGMTSLTAWWCYVLRC	inactive
CEYLGPVYIM	inactive
CFASWN	inactive
CFCLSRL	inactive
CFDTSLSVPGPMCYWKTKHG	inactive
CFELDVRDEA	inactive
CFIWMSYGVPLNCNCLPQRP	inactive
CFLSQLNTSDACVCLRFGWG	inactive
CFNYRLDFTQNWYMLIQCCH	0.867 ± 0.24
CFSAASTVKNMIEGCCRGMY	inactive
CFSDGPLRVHSIGQRWLRCR	inactive
CFSFYVGCGRMQEPPRLGAG	0.785 ± 0.18
CFTNNSIHVYSLWIKTRHFF	0.239 ± 0.58
CFYSNQASQVLLLYHP	0.771 ± 0.2
CGSVNVSTRYKD	inactive
CGTFNCYNGAL	0.699 ± 0.19
CGWIFNLYSRRIQALEGRAS	inactive
CHDLLHVVIEIPVCFLCTKG	0.807 ± 0.18
